According to patent publication US20250313612A1 (Adimab, published 2025):

B1: ADI-14490 (antibody, V domains shown)
VH: QVQLVQSGGGVVQPGRSLRLSCAASGFTFSNYGMHWVRQAPGKGLEWVAVIWYDGSNKYYADSVKGRFTISRDNSKNTVYLQMNSLRADDTAVYYCARDAIFGSGPNWFDPWGQGTLVTVSS
VL: QSVLTQPPSVSGAPGQRVTISCTGSSSNIGAGYDVHWYQQLPGTAPKLLIYGSSNRPSGVPDRFSGSKSGTSASLAITGLQAEDEADYYCQSYESSLRGWVFGGGTKVTVL
B2: ADI-14480 (antibody, V domains shown)
VH: QVQLVQSGAEVKKPGSSMSISCRASGGSFNNQAIHWIRQAPGEGLEWMGNIIPNFGSQNYAPEFVGRVSFNADASAGTAYMDLSDLTSQDTAVYYCATAGWFGELVRFDSWGQGTLVTVSS
VL: DIVMTQSPATLSVSPGGRATLSCRASETITTNLAWYQQKPGQAPRLLIYGASTRATGIPARFSGSGSGTEFTLTINSLQSEDFAVYYCQQYNNWPPLTFGGGTKLEIK
B3: ADI-14441 (antibody, V domains shown)
VH: QVQLVQSGAEVKKPGSSVKISCKASGGTFNSQAIHWVRQAPGQDLEWMGNIIPGFGSPNSAQNFQGRVTFIADDSTGAAYMDLSSLKSEDTAVYYCATAGWFGESVHLDSWGQGTLVTVSS
VL: not shown
B4: ADI-14473 (antibody, V domains shown)
VH: QVQLVQSGAEVKKPGEPLRISCKGSGYTFTSYWISWVRQMPGTGLEWMGRIDPSDSYTYSSPSFQGHVTISVDKSISTAYLQWSSLKASDTAIYYCARHKENYDFWDFWGQGTLVTVSS
VL: ETTLTQSPDSLAVSLGERATINCKSSQTIFFNSNNKISLAWYQQKPGQPPKLLISWASTRESGVPDRFSGSGSGTDFTLTISSLQPEDVAVYFCQQYYSSAFFGPGTRLEIK
notes: full-length IgG (yeast-expressed); also called Antibody Number 35; Ab# 35
B5: ADI-14464 (antibody, V domains shown)
VH: QVQLVQSGAEVKKPGASVKVSCEASAYSFSGDYVHWVRQAPGQGLEWMGWIKAVNGGANYAQRFHGRVTMTTDSSRSTVYLELTRLTPDDTAVYFCAKDRAASVHVPAGEFDLWGQGTLVTVSS
VL: DIQVTQSPSSLSASVGDRVSITCRASQSISNFLNWYRQRPGKAPELLIYAASTLQGGVPSRFSGSGSGTHFTLTISSLQPEDFATYYCQQSYTIPSITFGQGTRLEIK
B6: ADI-14467 (antibody, V domains shown)
VH: EVQLLESGSEVKKPGTSVKVSCETSGYIFTNYAISWVRQAPGQGLEWLGWISGYNGQTYYAQKVQGRLTLTTDTSTMTAYMDLTSLRSDDTAIYYCVRDVPVISGASTMDYWGQGTLVTVSS
VL: DIVMTQSPLSLPVTHGQPASISCRSSQSLVYSDGNTYLSWFQLRPGQSPRRLIYKVSNRDSGVPDRFSGSGSGTDFTLKISRVEAEDVGVYYCMQATQWPRTFGQGTKVEIK
B7: ADI-14503 (antibody, V domains shown)
VH: QVQLVQSGGGLVKPGGSLRLSCAASGFSLTNYRMNWVRQAPGKGLEWVSSLKDSSSYIYYADSVKGRFTVSRDDAKNSFFLQMTNVRAEDTAVYYCAREGSDTEYWRLTPPMDVWGNGTTVTVSS
VL: QSVLTQPPSVSVAPRQTARITCGEHNIGTKSVHWYQQKPGQAPVLVIYDDSDRPSGIPARFSGSNSGNTATLTISWVEAGDEAVYYCQVWDSGDHPWLFGGGTQLTVL
notes: full-length IgG (yeast-expressed); also called Antibody Number 64; Ab# 64
B8: ADI-14486 (antibody, V domains shown)
VH: QVQLQESGPGLVKPSETLSLTCTVSGGSINNYFWSWIRQPPGKGLEWLGYIYNSGSTYYNPSLNSRVTISLQKSKNQFSLHLTSMTAADTAVYFCARHPSVIYGTFGANGGPNWFDPWGQGTLVTVSS
VL: QSVLTQPASVSGSPGQSITISCTGTSSDVGGYNYVSWYQQHPGKAPKLMIFDVTYRPSGISNRFSGSKSGNTASLTISGLHSEDEADYYCSSYTGSNTVIFGGGTKLTVL
notes: full-length IgG (yeast-expressed); also called Antibody Number 47; Ab# 47
B9: ADI-14463 (antibody, V domains shown)
VH: QVQLVQSGTEVKKPGASVKVSCKASGYIFDHFAITWVRQAPGQGPEWMGWISAYNGRTEDSGKFPGRLTLTTDPATRTAFLELRGLTPDDTAVYYCARDVPVMGAAFLDYWGQGTLVTVSS
VL: EIVLTQSPLSLPVTVGQPASISCRSGQSLEFSDGNTYLTWFHQRPGQSPRRLIYRGSYRDSGVPDRFRGSGSGTTFTLTISRVEAEDVGIYFCMQGTHWPPTFGQGTKVDIK
B10: ADI-14474 (antibody, V domains shown)
VH: QVQLVQSGPEVKKPGASVTISCQASGYIFNHYSITWVRQAPGQGTEWMGWISAYHGKTEYSGKFHGRVTLTTDTGTRTAFLELRDLTSDDTAIYYCARDVPVMGAAFLDYWGQGTLVTVSS
VL: EIVLTQSPLSLPVTLGQPASISCRSGQSLEFSDGNTYLTWFQQRPGQSPRRLIFRGSYRDSGVPERFSGSGSGTSFTLTISRVEAEDVGIYFCMQGTHWPPTFGQGTKLEIK
B11: ADI-14478 (antibody, V domains shown)
VH: EVQLVESGGGLVKPGGSLRLSCAASGFTFSDYYMSWIRQAPGKGLEWVSYISISSSYTDYADSVKGRFTISRDNAKNSLYLQMNSLRAEDTAVYYCARDQRDQAVAGRWFDPWGQGTLVTVSS
VL: QSVVTQPPSVSGAPGQRVTISCTGSSSNIGAGFDVHWYQQVPGTAPKLLIYANTNRPSGVPDRFSGSKSGTSASLAITGLKAEDEADYYCQSYDNSLSGSAVFGGGTKVTVL
B12: ADI-14465 (antibody, V domains shown)
VH: QVQLLESGAGLLKPSETLSLTCSLSGGSFRDFYWAWIRQAPGRGLEWIGDINDGGNTNHSPSLKSRAILSIDASKRQFSLRLTSVTAADTAVYYCARQRLEHTASGYYMDVWGNGTTVTVSS
VL: QSVLTQPPSVSVDPGETATITCGGANIGSKNVYWYQQRPGQAPVLVVYDDIDRPAGIPDRFTDSSSGNTVTLTIYSVEAVDEADYFCQVWDNSSDQPVFGGGTKLTVL
B13: ADI-14488 (antibody, V domains shown)
VH: EVQLVESGGGLVQPGGSLKLSCTSSGLAFSGSAIHWVRQASGKGLEWVGRIRSKPNSYATEYAASVKGRFTISRDDSQNTAYLQMNSLKAEDTALYYCTLGYCSGDSCSSLRDYWGQGTLVTVSS
VL: QSALIQPASVSGSPGQSITISCTGTSSDVGGYNYVSWYQQHPGKAPKLMIYDVSNRPSGVSNRFSGSKSGNTASLTISGLQAEDEADYYCSSYTSSSTLVFGGGTKVTVL
B14: ADI-14462 (antibody, V domains shown)
VH: QVQLVQSGGGVVQPGGSLRLSCAAYGLTFRAYGMHWVRQAPGKGLEWVAVSWYDGTNEVYADSVKGRFRISRDDSRSTLYLQMNSLRGEDTAVYYCATERMWEENSSSFGWWGRGTLVTVSS
VL: QAVLTQPASVSGSPGQSITISCTGSSSDVGGSNFVSWYQQHPGKAPKLMVYDVNHRPSGISNRFSGSKSGNTASLTISGLQAEDEADYYCTSYTSRSSYVFGSGTKVTVL
B15: ADI-14487 (antibody, V domains shown)
VH: QVQLVQSGAEVKKPGASVRVSCKASGYTFSSYYIHWVRQAPGQGPEWLGWINPKSGDTIYSYKFQGRVTLTRETSITTAYMELTSLRSDDTAVYYCARVTWQWLVLGGFDYWGQGTLVTVSS
VL: DIVLTQSPLSLPVTPGEPASISCRSSLSLLHSNGDNYLDWYLQKPGQSPQLLIYLGSNRASGVPDRFSGSGSGTDFTLKISRVEAEDVGVYYCMQALHTPLTFGGGTKLEIK
B16: ADI-14479 (antibody, V domains shown)
VH: QVQLVQSGSEVKQPGASVKVSCKASGYTFSAYHLHWVRQAPGQGLQWLGRINPNSGATSVAHNFQGRVTLTTDTSISTAYMELSSLTSDDSAVYYCARTMWRWLVEGGFENWGQGTLVTVSS
VL: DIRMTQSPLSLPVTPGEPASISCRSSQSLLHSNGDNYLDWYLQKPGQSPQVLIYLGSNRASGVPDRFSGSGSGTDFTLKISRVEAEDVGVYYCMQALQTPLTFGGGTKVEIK
B17: ADI-14483 (antibody, V domains shown)
VH: QVQLVQSGGRLVKPGGSLRLSCGMSGFGFSSYRMNWVRQAPGKGLEWISSISASSSYTDYANSVKGRFTISRDGANLFLQMNSLRVEDTAVYYCARDWGGHSIFGAVQDLWGQGTLVTVSS
VL: QSVLTQPPSVSGAPGQRVTISCSGSSSNIGAGYDVHWYQQLPGTAPKLLIYGNTNRPSGVPDRFSGSKSGTSASLAITGLQAEDEADYYCQSYDRSLSQVFGAGTKVTVL
notes: full-length IgG (yeast-expressed); also called Antibody Number 44; Ab# 44
B18: ADI-14522 (antibody, V domains shown)
VH: EVQLVESGAEVKKPGDSVKVSCRASGYSFTGPFLHWVRQAPGQRLEHMGWINPRSGETKYAQSFLGRVTMTRDTSIRSATLELSSLRSDDTAVYYCARDLYSSGWLDNWGQGTLVTVSS
VL: ETTLTQSPATLSVSPGERATLSCRASQGLSSNLAWYQHKPGQAPRLLVYGVATRATGVPARFSGSGSGTEFTLTISSLQSDDFALYYCHQYNDWPYTFGQGTKLEIK
notes: full-length IgG (yeast-expressed); also called Antibody Number 82; Ab# 82
B19: ADI-14482 (antibody, V domains shown)
VH: QVQLQQWGAGLVKPSETLSLTCAVSGGSFRGYQWNWFRQPPGKGLEWIGEINHGEYTHYNASLKSRVSLSIDTSKNQFSLNLTSVTAADTAMYFCARASSGTYNFEYWFDPWGQGTLVTVSS
VL: SYVLTQPPSVSVAPGKTAWLTCGGNNIGNKRVHWYQQKPGQAPVLVVYDDYGRPSGTSERVSGSNSGNTATLTISRVEAGDEAEYYCQVWDDPSDHAVFGGGTQLTVL

Columns and labels:
[1] = target: RSV F protein of recombinant mKate-RSV, subtype B (18537) (Respiratory syncytial virus subtype B …, UniProt P13843 26-574); assay: cell-based or functional assay
[2] = target: RSV F protein of recombinant mKate-RSV, subtype A (strain A2) (Respiratory syncytial virus subtype A …, UniProt P03420 26-574); assay: cell-based or functional assay
[3] = target: T1, RSV F ectodomain stabilized in the postfusion conformation (F ΔFP), subtype B (Respiratory syncytial virus subtype B, UniProt P13843 26-109; P13843 147-524); assay: BLI, IgG on AHQ sensor, 100 nM antigen
T1 construct: extracellular domain; trimer; also called Postfusion subtype B; postF subtype B

[4] = target: T2, RSV F ectodomain stabilized in the postfusion conformation (F ΔFP), subtype A (Respiratory syncytial virus subtype A, UniProt P03420 26-109; P03420 147-524); assay: BLI, IgG on AHQ sensor, 100 nM antigen
T2 construct: extracellular domain; trimer; furin-cleaved; also called Postfusion subtype A

Binder | Neut IC50 subtype B [1] [µg/mL] | Neut IC50 subtype A [2] [µg/mL] | Kd [3] [nM] | Kd [4] [nM]
B1 | 0.113 | 1.02 |  | 
B2 | 2.76 | > 10 |  | 
B3 | 3.92 | > 10 |  | 
B4 |  |  | 0.151 | 0.224
B5 | 0.161 | > 10 |  | 
B6 | 0.065 | 0.06 |  | 
B7 | 0.026 | 0.016 |  | 26.1
B8 |  |  | 0.636 | 0.529
B9 | 0.036 | 0.009 |  | 
B10 | 0.016 | 0.019 |  | 
B11 | 0.057 | 0.163 |  | 
B12 | 0.124 | 0.431 |  | 
B13 | > 10 | > 10 |  | 
B14 | 2.63 | 2.71 |  | 
B15 | > 10 | > 10 |  | 
B16 | 22.7 | 4.09 |  | 
B17 | 0.03 | 0.031 | 20 | 
B18 | 7.29 | 3.53 | 1.06 | 
B19 | 0.031 | 0.024 |  | 
